Values of other authors, collected in US12653792B2, “Synthetic lipids for mRNA delivery” (Trustees of Tufts College, priority 2019, dated 2026).

Biological target: T1, ANGPTL3 (Homo sapiens, UniProt Q9Y5C1)
T1 sequence (Q9Y5C1 17-460): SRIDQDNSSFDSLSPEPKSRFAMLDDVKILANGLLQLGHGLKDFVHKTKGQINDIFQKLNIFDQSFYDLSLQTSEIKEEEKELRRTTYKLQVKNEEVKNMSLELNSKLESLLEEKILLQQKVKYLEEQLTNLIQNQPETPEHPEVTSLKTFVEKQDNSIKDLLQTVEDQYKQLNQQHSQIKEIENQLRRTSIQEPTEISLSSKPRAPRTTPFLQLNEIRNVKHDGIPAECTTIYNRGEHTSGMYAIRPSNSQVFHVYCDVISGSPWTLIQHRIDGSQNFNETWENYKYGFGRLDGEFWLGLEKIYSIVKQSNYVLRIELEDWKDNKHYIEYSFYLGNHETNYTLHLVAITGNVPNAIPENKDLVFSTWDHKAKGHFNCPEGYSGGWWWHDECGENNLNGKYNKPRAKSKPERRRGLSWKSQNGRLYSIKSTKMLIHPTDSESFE
Conditions: healthy human volunteers, clinical trial

## evinacumab: ANGPTL3 targeting monoclonal antibody
  LDL-C and TG levels: effective reduction in LDL-C and TG levels
